B1: library; numbered along this chain (parent)
chain: MRKPRAAVGSGHRKQAASQEGRQKHAKNNSQAKPSACDGLARQPEEVVLQASVSSYHLFRDVAEVTAFRGSLLSWYDQEKRDLPWRRRAEDEMDLDRRAYAVWVSEVMLQQTQVATVINYYTGWMQKWPTLQDLASASLEEVNQLWAGLGYYSRGRRLQEGARKVVEELGGHMPRTAETLQQLLPGVGRYTAGAIASIAFGQATGVVDGNVARVLCRVRAIGADPSSTLVSQQLWGLAQQLVDPARPGDFNQAAMELGATVCTPQRPLCSQCPVESLCRARQRVEQEQLLASGSLSGSPDVEECAPNTGQCHLCLPPSEPWDQTLGVVNFPRKASRKPPREESSATCVLEQPGALGAQILLVQRPNSGLLAGLWEFPSVTWEPSEQLQRKALLQELQRWAGPLPATHLRHLGEVVHTFSHIKLTYQVYGLALEGQTPVTTVPPGARWLTQEEFHTAAVSTAMKKVFRVYQGQQPGTCMGSKRSQVSSPCSRKKPRMGQQVLDNFFRSHISTDAHSLNSAAQ

Variants of: B1
Assay: 8OG:A repair function score (normalized; synonymous = 0, nonsense = -1) (normalized log-likelihood score); higher = more repair activity (WT-like)
Details: with 8OG:A DNA repair reporter (GFP) in HEK-293 MUTYH KO cells
Method in brief: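 Lentiviral MUTYH cDNA NNN codon-scan libraries in HEK-293 MUTYH knockout cells (10 pg/ml doxycycline) were co-transfected with an 8OG:A GFP repair reporter plus mCherry. At 72 h, viable mCherry+ cells were sorted into GFP+ (repair) and GFP− bins, three replicates per tile, then tile amplicons were sequenced. Per-tile Rosace fitness scores became a normalized repair function score anchored on synonymous and nonsense distributions. Synonymous medians were set to 0 and nonsense to -1; variants under 300 counts per million at the start were removed.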
For MRKPRAAVGSGHRKQAASQEGRQKHAKNNSQAKPSACDGLARQPEEVVLQASVSSYHLFRDVAEVTAFRGSLLSWYDQEKRDLPWRRRAEDEMDLDRRAYAVWVSEVMLQQTQVATVINYYTGWMQKWPTLQDLASASLEEVNQLWAGLGYYSRGRRLQEGARKVVEELGGHMPRTAETLQQLLPGVGRYTAGAIASIAFGQATGVVDGNVARVLCRVRAIGADPSSTLVSQQLWGLAQQLVDPARPGDFNQAAMELGATVCTPQRPLCSQCPVESLCRARQRVEQEQLLASGSLSGSPDVEECAPNTGQCHLCLPPSEPWDQTLGVVNFPRKASRKPNREESSATCVLEQPGALGAQILLVQRPNSGLLAGLWEFPSVTWEPSEQLQRKALLQELQRWAGPLPATHLRHLGEVVHTFSHIKLTYQVYGLALEGQTPVTTVPPGARWLTQEEFHTAAVSTAMKKVFRVYQGQQPGTCMGSKRSQVSSPCSRKKPRMGQQVLDNFFRSHISTDAHSLNSAAQ [P339N], the “8OG:A repair function score” value was -0.17.
For MRKPRAAVGSGHRKQAASQEGRQKHAKNNSQAKPSACDGLARQPEEVVLQASVSSYHLFRDVAEVTAFRGSLLSWYDQEKRDLPWRRRAEDEMDLDRRAYAVWVSEVMLQQTQVATVINYYTGWMQKWPTLQDLASASLEEVNQLWAGLGYYSRGRRLQEGARKVVEELGGHMPRTAETLQQLLPGVGRYTAGAIASIAFGQATGVVDGNVARVLCRVRAIGADPSSTLVSQPLWGLAQQLVDPARPGDFNQAAMELGATVCTPQRPLCSQCPVESLCRARQRVEQEQLLASGSLSGSPDVEECAPNTGQCHLCLPPSEPWDQTLGVVNFPRKASRKPPREESSATCVLEQPGALGAQILLVQRPNSGLLAGLWEFPSVTWEPSEQLQRKALLQELQRWAGPLPATHLRHLGEVVHTFSHIKLTYQVYGLALEGQTPVTTVPPGARWLTQEEFHTAAVSTAMKKVFRVYQGQQPGTCMGSKRSQVSSPCSRKKPRMGQQVLDNFFRSHISTDAHSLNSAAQ [Q233P], the “8OG:A repair function score” value was -0.428.
With MRKPRAAVGSGHRKQAASQEGRQKHAKNNSQAKPSACDGLARQPEEVVLQASVSSYHLFRDVAEVTAFRGSLLSWYDQEKRDLPWRRRAEDEMDLDRRAYAVWVSEVMLQQTQVATVINYYTGWMQKWPTLQDLASASLEEVNQLWAGLGYYSRGRRLQEGARKVVEELGGHMPRTKETLQQLLPGVGRYTAGAIASIAFGQATGVVDGNVARVLCRVRAIGADPSSTLVSQQLWGLAQQLVDPARPGDFNQAAMELGATVCTPQRPLCSQCPVESLCRARQRVEQEQLLASGSLSGSPDVEECAPNTGQCHLCLPPSEPWDQTLGVVNFPRKASRKPPREESSATCVLEQPGALGAQILLVQRPNSGLLAGLWEFPSVTWEPSEQLQRKALLQELQRWAGPLPATHLRHLGEVVHTFSHIKLTYQVYGLALEGQTPVTTVPPGARWLTQEEFHTAAVSTAMKKVFRVYQGQQPGTCMGSKRSQVSSPCSRKKPRMGQQVLDNFFRSHISTDAHSLNSAAQ [A177K] the “8OG:A repair function score” value was -0.0185.
In the case of MRKPRAAVGSGHRKQAASQEGRQKHAKNNSQAKPSACDGLARQPEEVVLQASVSSYHLFRDVAEVTAFRGSLLSWYDQEKRDLPWRRRAEDEMDLDRRAYAVWVSEVMLQQTQVATVINYYTGWMQKWPTLQDLASASLEEVNQLWAGLGYYSRGRRLQEGARKVVEELGGHMPRTAETLQQLLPGVGRYTAGAIASIAFGQAVGVVDGNVARVLCRVRAIGADPSSTLVSQQLWGLAQQLVDPARPGDFNQAAMELGATVCTPQRPLCSQCPVESLCRARQRVEQEQLLASGSLSGSPDVEECAPNTGQCHLCLPPSEPWDQTLGVVNFPRKASRKPPREESSATCVLEQPGALGAQILLVQRPNSGLLAGLWEFPSVTWEPSEQLQRKALLQELQRWAGPLPATHLRHLGEVVHTFSHIKLTYQVYGLALEGQTPVTTVPPGARWLTQEEFHTAAVSTAMKKVFRVYQGQQPGTCMGSKRSQVSSPCSRKKPRMGQQVLDNFFRSHISTDAHSLNSAAQ [T204V], the “8OG:A repair function score” value is reported as 0.0534.
In the case of MRKPRAAVGSGHRKQAASQEGRQKHAKNNSQAKPSACDGLARQPEEVVLQASVSSYHLFRDVAEVTAFRGSLLSWYDQEKRDLPWRRRAEDEMDLDRRAYAVWVSEVMLQQTQVATVINYYTGWMQKWPTLQDLASASLEEVNQLWAGLGYYSRGRRLQEGARKVVEELGGHMPRTAETLQQLLPGVGRYTAGAIASIAFGQATGVVDGNVARVLCRVRAIGADPSSTLVSQQLWGLAQQLVDPARPGDFNQAAMELGATVCTPQRPLCEQCPVESLCRARQRVEQEQLLASGSLSGSPDVEECAPNTGQCHLCLPPSEPWDQTLGVVNFPRKASRKPPREESSATCVLEQPGALGAQILLVQRPNSGLLAGLWEFPSVTWEPSEQLQRKALLQELQRWAGPLPATHLRHLGEVVHTFSHIKLTYQVYGLALEGQTPVTTVPPGARWLTQEEFHTAAVSTAMKKVFRVYQGQQPGTCMGSKRSQVSSPCSRKKPRMGQQVLDNFFRSHISTDAHSLNSAAQ [S270E], the “8OG:A repair function score” value is reported as -0.0683.
With MRKPRAAVGSGHRKQAASQEGRQKHAKNNSQAKPSACDGLARQPEEVVLQASVSSYHLFRDVAEVTAFRGSLLSWYDQEKRDLPWRRRAEDEMDLDRRAYAVWVSEVMLQQTQVATVINYYTGWMQKWPTLQDLASASLEEVNQLWAGLGYYSRGRRLQEGARKVVEELGGHMPRTAETLQQLLPGVGRYTAGAIASIAFGQATGVVDGNVARVLCRVRAIGADPSSTLVSQQLWGLAQQLVDPARPGDFNQAAMELGATVCTPQRPLCSQCPVESLCRARQRVEQEQLLASGSLSGSPDVEECAPNTGQCHLCLPPSEPWDQTLGVVNFPRKASRKPPREESSATCVLEQPGALGAQILLVQRPNSGLLAGLWEQPSVTWEPSEQLQRKALLQELQRWAGPLPATHLRHLGEVVHTFSHIKLTYQVYGLALEGQTPVTTVPPGARWLTQEEFHTAAVSTAMKKVFRVYQGQQPGTCMGSKRSQVSSPCSRKKPRMGQQVLDNFFRSHISTDAHSLNSAAQ [F376Q] the “8OG:A repair function score” value was -1.35.
With MRKPRAAVGSGHRKQAASQEGRQKHAKNNSQAKPSACDGLARQPEEVVLQASVSSYHLFRDVAEVTAFRGSLLSWYDQEKRDLPWRRRAEDEMDLDRRAYAVWVSEVMLQQTQVATVINYYTGWMQKWPTLQDLASASLEEVNQLWAGLGYYSRGRRLQEGARKVVEELGGHMPRTAETLQQLLPGVGRYTAGAIASIAFGQATGVVDGNVARVLCRVRAIGADPSSTLVSQQLWGLAQQLVDPARPGDFNQAAMELGATVCTPQRPLCSQCPVESLCRARQRVEQEQLLASGSLSGSPDVEECAPNTGQCHLCLPPSEPWDQTLGVVNFPRKASRKPPREESSATCVLEQPGALGAQILLVQRPNSGLLAGLWVFPSVTWEPSEQLQRKALLQELQRWAGPLPATHLRHLGEVVHTFSHIKLTYQVYGLALEGQTPVTTVPPGARWLTQEEFHTAAVSTAMKKVFRVYQGQQPGTCMGSKRSQVSSPCSRKKPRMGQQVLDNFFRSHISTDAHSLNSAAQ [E375V] the “8OG:A repair function score” value was -0.423.
MRKPRAAVGSGHRKQAASQEGRQKHAKNNSQAKPSACDGLARQPEEVVLQASVSSYHLFRDVAEVTAFRGSLLSWYDQEKRDLPWRRRAEDEMDLDCRAYAVWVSEVMLQQTQVATVINYYTGWMQKWPTLQDLASASLEEVNQLWAGLGYYSRGRRLQEGARKVVEELGGHMPRTAETLQQLLPGVGRYTAGAIASIAFGQATGVVDGNVARVLCRVRAIGADPSSTLVSQQLWGLAQQLVDPARPGDFNQAAMELGATVCTPQRPLCSQCPVESLCRARQRVEQEQLLASGSLSGSPDVEECAPNTGQCHLCLPPSEPWDQTLGVVNFPRKASRKPPREESSATCVLEQPGALGAQILLVQRPNSGLLAGLWEFPSVTWEPSEQLQRKALLQELQRWAGPLPATHLRHLGEVVHTFSHIKLTYQVYGLALEGQTPVTTVPPGARWLTQEEFHTAAVSTAMKKVFRVYQGQQPGTCMGSKRSQVSSPCSRKKPRMGQQVLDNFFRSHISTDAHSLNSAAQ [R97C] was tested, and the “8OG:A repair function score” value was 0.00684.
For MRKPRAAVGSGHRKQAASQEGRQKHAKNNSQAKPSACDGLARQPEEVVLQASVSSYHLFRDVAEVTAFRGSLLSWYDQEKRDLPWRRRAEDEMDLDRRAYAVWVSEVMLQQTQVATVINYYTGWMQKWPTLQDLASASLEEVNQLWAGLGYYSRGRRLQEGARKVVEELGGHMPRTAETLQQLLPGVGRYTAGAIASIAFGQATGVVDGNVARVLCRVRAIGADPSSTLVSQQLWGLAQQLVDPARPGDFNQAAMELGATVCTPQRPLCSQCPVESLCRARQRVEQEQLLASGSLSGSPDVEECAPNTGQCHLCLPPSEPWDQTLGVVNFPRKASRKPPREESSATCVLEQPGALGAQILLVQRPNSGLLAGLWEFPSVTWEPSEQLQRKALLQELQRWAGPLPATHLRHLGEVVHTFSHIKLTYQVYGLALEGQTPVTTVPPGARWLTQEEFHTAAVSTAMKKVFRVYQGQQPGTCMGSKRSQVSSPCSRKKPRMGQQVLDNFFRSHSSTDAHSLNSAAQ [I509S], the “8OG:A repair function score” value was 0.0252.
With MRKPRAAVGSGHRKQAASQEGRQKHAKNNSQAKPSACDGLARQPEEVVLQASVSSYHLFRDVAEETAFRGSLLSWYDQEKRDLPWRRRAEDEMDLDRRAYAVWVSEVMLQQTQVATVINYYTGWMQKWPTLQDLASASLEEVNQLWAGLGYYSRGRRLQEGARKVVEELGGHMPRTAETLQQLLPGVGRYTAGAIASIAFGQATGVVDGNVARVLCRVRAIGADPSSTLVSQQLWGLAQQLVDPARPGDFNQAAMELGATVCTPQRPLCSQCPVESLCRARQRVEQEQLLASGSLSGSPDVEECAPNTGQCHLCLPPSEPWDQTLGVVNFPRKASRKPPREESSATCVLEQPGALGAQILLVQRPNSGLLAGLWEFPSVTWEPSEQLQRKALLQELQRWAGPLPATHLRHLGEVVHTFSHIKLTYQVYGLALEGQTPVTTVPPGARWLTQEEFHTAAVSTAMKKVFRVYQGQQPGTCMGSKRSQVSSPCSRKKPRMGQQVLDNFFRSHISTDAHSLNSAAQ [V65E] the “8OG:A repair function score” value was -0.196.
MRKPRAAVGSGHRKQAASQEGRQKHAKNNSQAKPSACDGLARQPEEVVLQASVSSYHLFRDVAEVTAFRGSLLSWYDQEKRDLPWRRRAEDEMDLDRRAYAVWVSEVMLQQTQVATVINYYTGWMQKWPTLQDLASASLEEVNQLWAGLGYYSRGRRLQEGARKVVEELGGHMPRTAETLQQLLPGVGRYTAGAIASIAFGQATGVVDGNVARVLCRVRAIGADPSSTLVSQQLWGLAQQLVDPARPGDFNQAAMELGATVCTPQRPLCSQCPVESLCRARQRVEQEQLLASGSLSGSPDVEECAPNTGQCHLCLPPSEPWDQTLGVVNFPRKASRKPPREESSATCVLEQPGALGAQILLVQRPNSGLLAGLWEFPSVTWEPSEQLQRKALLQELQRWAGPLPATHLRHLGEVVHTFSHIKLTYQVYGLALEGQTPVTTVPPGARWLTQEEFHTAAVSTAMKKVFRVYQGQQPGTCMGSKRSQVSSPCSRKYPRMGQQVLDNFFRSHISTDAHSLNSAAQ [K493Y] was tested, and the “8OG:A repair function score” value was 0.00504.
For MRKPRAAVGSGHRKQAASQEGRQKHAKNNSQAKPSACDGLARQPEEVVLQASVSSYHLFRDVAEVTAFRGSLLSWYDQEKRDLPWRRRAEDEMDLDRRAYAVWVSEVMLQQTQVATVINYYTGWMQKWPTLQDLASASLEEVNQLWAGLGYYSRGRRLQEGARKVVEELGGHMPRTAETLQQLLPGVGRYTAGAIASIAFGQATGVVDGNVARVLCRVRAIGADPSSTVVSQQLWGLAQQLVDPARPGDFNQAAMELGATVCTPQRPLCSQCPVESLCRARQRVEQEQLLASGSLSGSPDVEECAPNTGQCHLCLPPSEPWDQTLGVVNFPRKASRKPPREESSATCVLEQPGALGAQILLVQRPNSGLLAGLWEFPSVTWEPSEQLQRKALLQELQRWAGPLPATHLRHLGEVVHTFSHIKLTYQVYGLALEGQTPVTTVPPGARWLTQEEFHTAAVSTAMKKVFRVYQGQQPGTCMGSKRSQVSSPCSRKKPRMGQQVLDNFFRSHISTDAHSLNSAAQ [L229V], the “8OG:A repair function score” value was 0.0526.
